Measurements as given in article doi:10.1101/2020.12.21.423144 (bioRxiv, 2020).
Where a chain is given by its changes, count along the chain named. Names and notes keep the numbering of the source. “Also recorded” adds a separate entry of the source.

Tests used:
P29274 = assay: SEC
[1] = target: the molecule itself; assay: SDS-PAGE and Western blot densitometry
SEC = target: the molecule itself; assay: SEC

B1: human adenosine A2A receptor, full-length wild type (receptor)
chain: MPIMGSSVYITVELAIAVLAILGNVLVCWAVWLNSNLQNVTNYFVVSLAAADIAVGVLAIPFAITISTGFCAACHGCLFIACFVLVLTQSSIFSLLAIAIDRYIAIRIPLRYNGLVTGTRAKGIIAICWVLSFAIGLTPMLGWNNCGQPKEGKNHSQGCGEGQVACLFEDVVPMNYMVYFNFFACVLVPLLLMLGVYLRIFLAARRQLKQMESQPLPGERARSTLQKEVHAAKSLAIIVGLFALCWLPLHIINCFTFFCPDCSHAPLWLMYLAIVLSHTNSVVNPFIYAYRIREFRQTFRKIIRSHVLRQQEPFKAAGTSARVLAAHGSDGEQVSLRLNGHPPGVWANGSAPHPERRPNGYALGLVSGGSAQESQGNTGLPDVELLSHELKGVCPEPPGLDDPLAQDGAGVS
P29274
  HMW oligomer level (relative to monomer): ctrl: 0.88
  total oligomer level (HMW oligomer and dimer, relative to monomer): ctrl: 1.37; also recorded: WT: 1.34
[1]
  dimer level (relative to monomer), with 5 mM TCEP: 0.51 arbitrary units
  dimer level (relative to monomer), without TCEP: 1.14 arbitrary units

B2: A2AR-FL-ERR:AAA (receptor)
chain: B1 chain with E355A, R356A, R357A
SEC
  dimer level (relative to monomer): 0.29 arbitrary units
P29274
  HMW oligomer level (relative to monomer): ERR:AAA: 0.66
  total oligomer level (HMW oligomer and dimer, relative to monomer): ERR:AAA: 0.94

B3: A2AR-N359ΔC (protein)
chain: MPIMGSSVYITVELAIAVLAILGNVLVCWAVWLNSNLQNVTNYFVVSLAAADIAVGVLAIPFAITISTGFCAACHGCLFIACFVLVLTQSSIFSLLAIAIDRYIAIRIPLRYNGLVTGTRAKGIIAICWVLSFAIGLTPMLGWNNCGQPKEGKNHSQGCGEGQVACLFEDVVPMNYMVYFNFFACVLVPLLLMLGVYLRIFLAARRQLKQMESQPLPGERARSTLQKEVHAAKSLAIIVGLFALCWLPLHIINCFTFFCPDCSHAPLWLMYLAIVLSHTNSVVNPFIYAYRIREFRQTFRKIIRSHVLRQQEPFKAAGTSARVLAAHGSDGEQVSLRLNGHPPGVWANGSAPHPERRPN
P29274
  HMW oligomer level (relative to monomer): ctrl: 0.68
  total oligomer level (HMW oligomer and dimer, relative to monomer): ctrl: 1.01

B4: A2AR-N359ΔC with the ERR:AAA mutations (domain or fragment)
chain: B3 chain with E355A, R356A, R357A
SEC
  dimer level (relative to monomer): 0.48 arbitrary units
P29274
  HMW oligomer level (relative to monomer): ERR:AAA: 0.38
  total oligomer level (HMW oligomer and dimer, relative to monomer): ERR:AAA: 0.85

B5: A2AR-C394L (receptor)
chain: B1 chain with C394L
SEC
  binding result: binds

B6: A2AR-C394M (receptor)
chain: B1 chain with C394M
SEC
  binding result: binds

B7: A2AR-C394V (receptor)
chain: B1 chain with C394V
SEC
  binding result: binds

B8: A2AR-V334ΔC (domain or fragment)
chain: MPIMGSSVYITVELAIAVLAILGNVLVCWAVWLNSNLQNVTNYFVVSLAAADIAVGVLAIPFAITISTGFCAACHGCLFIACFVLVLTQSSIFSLLAIAIDRYIAIRIPLRYNGLVTGTRAKGIIAICWVLSFAIGLTPMLGWNNCGQPKEGKNHSQGCGEGQVACLFEDVVPMNYMVYFNFFACVLVPLLLMLGVYLRIFLAARRQLKQMESQPLPGERARSTLQKEVHAAKSLAIIVGLFALCWLPLHIINCFTFFCPDCSHAPLWLMYLAIVLSHTNSVVNPFIYAYRIREFRQTFRKIIRSHVLRQQEPFKAAGTSARVLAAHGSDGEQV
SEC
  binding result: binds

B9: A2AR-G344ΔC (domain or fragment)
chain: MPIMGSSVYITVELAIAVLAILGNVLVCWAVWLNSNLQNVTNYFVVSLAAADIAVGVLAIPFAITISTGFCAACHGCLFIACFVLVLTQSSIFSLLAIAIDRYIAIRIPLRYNGLVTGTRAKGIIAICWVLSFAIGLTPMLGWNNCGQPKEGKNHSQGCGEGQVACLFEDVVPMNYMVYFNFFACVLVPLLLMLGVYLRIFLAARRQLKQMESQPLPGERARSTLQKEVHAAKSLAIIVGLFALCWLPLHIINCFTFFCPDCSHAPLWLMYLAIVLSHTNSVVNPFIYAYRIREFRQTFRKIIRSHVLRQQEPFKAAGTSARVLAAHGSDGEQVSLRLNGHPPG
SEC
  binding result: binds

B10: A2AR-G349ΔC (domain or fragment)
chain: MPIMGSSVYITVELAIAVLAILGNVLVCWAVWLNSNLQNVTNYFVVSLAAADIAVGVLAIPFAITISTGFCAACHGCLFIACFVLVLTQSSIFSLLAIAIDRYIAIRIPLRYNGLVTGTRAKGIIAICWVLSFAIGLTPMLGWNNCGQPKEGKNHSQGCGEGQVACLFEDVVPMNYMVYFNFFACVLVPLLLMLGVYLRIFLAARRQLKQMESQPLPGERARSTLQKEVHAAKSLAIIVGLFALCWLPLHIINCFTFFCPDCSHAPLWLMYLAIVLSHTNSVVNPFIYAYRIREFRQTFRKIIRSHVLRQQEPFKAAGTSARVLAAHGSDGEQVSLRLNGHPPGVWANG
SEC
  binding result: binds

B11: A2AR-Q372ΔC (domain or fragment)
chain: MPIMGSSVYITVELAIAVLAILGNVLVCWAVWLNSNLQNVTNYFVVSLAAADIAVGVLAIPFAITISTGFCAACHGCLFIACFVLVLTQSSIFSLLAIAIDRYIAIRIPLRYNGLVTGTRAKGIIAICWVLSFAIGLTPMLGWNNCGQPKEGKNHSQGCGEGQVACLFEDVVPMNYMVYFNFFACVLVPLLLMLGVYLRIFLAARRQLKQMESQPLPGERARSTLQKEVHAAKSLAIIVGLFALCWLPLHIINCFTFFCPDCSHAPLWLMYLAIVLSHTNSVVNPFIYAYRIREFRQTFRKIIRSHVLRQQEPFKAAGTSARVLAAHGSDGEQVSLRLNGHPPGVWANGSAPHPERRPNGYALGLVSGGSAQ
SEC
  binding result: binds

B12: A2AR-P395ΔC (domain or fragment)
chain: MPIMGSSVYITVELAIAVLAILGNVLVCWAVWLNSNLQNVTNYFVVSLAAADIAVGVLAIPFAITISTGFCAACHGCLFIACFVLVLTQSSIFSLLAIAIDRYIAIRIPLRYNGLVTGTRAKGIIAICWVLSFAIGLTPMLGWNNCGQPKEGKNHSQGCGEGQVACLFEDVVPMNYMVYFNFFACVLVPLLLMLGVYLRIFLAARRQLKQMESQPLPGERARSTLQKEVHAAKSLAIIVGLFALCWLPLHIINCFTFFCPDCSHAPLWLMYLAIVLSHTNSVVNPFIYAYRIREFRQTFRKIIRSHVLRQQEPFKAAGTSARVLAAHGSDGEQVSLRLNGHPPGVWANGSAPHPERRPNGYALGLVSGGSAQESQGNTGLPDVELLSHELKGVCP
SEC
  binding result: binds

B13: A2AR-P354ΔC (domain or fragment)
chain: MPIMGSSVYITVELAIAVLAILGNVLVCWAVWLNSNLQNVTNYFVVSLAAADIAVGVLAIPFAITISTGFCAACHGCLFIACFVLVLTQSSIFSLLAIAIDRYIAIRIPLRYNGLVTGTRAKGIIAICWVLSFAIGLTPMLGWNNCGQPKEGKNHSQGCGEGQVACLFEDVVPMNYMVYFNFFACVLVPLLLMLGVYLRIFLAARRQLKQMESQPLPGERARSTLQKEVHAAKSLAIIVGLFALCWLPLHIINCFTFFCPDCSHAPLWLMYLAIVLSHTNSVVNPFIYAYRIREFRQTFRKIIRSHVLRQQEPFKAAGTSARVLAAHGSDGEQVSLRLNGHPPGVWANGSAPHP
SEC
  dimer level (relative to monomer): 0.19 arbitrary units

B14: A2AR-C394S (receptor)
chain: B1 chain with C394S
SEC
  binding result: binds

B15: A2AR-C394A (receptor)
chain: B1 chain with C394A
SEC
  binding result: binds
